Source: PMC5016126

Target: FLAG-GLUT4 (GLUT4 tagged at the N and C termini with FLAG and His9, tags not cleaved) (UniProt P19357)
Assay: SDS-PAGE and Western blot; anti-FLAG immunoblot of purified FLAG-GLUT4 before and after TEV protease cleavage (0, 3 and 24 h) in LMNG detergent micelles or in 70% egg PC, 15% POPA, 15% POPE liposomes

stoichiometry N: 2
Substance: FLAG-GLUT4 (GLUT4 tagged at the N and C termini with FLAG and His9, tags not cleaved) (from UniProt P19357 1-509) (natural protein)
